In the first assay the target is recombinant small latent TGF-β. The assay is described as follows: cell-based or functional assay.
Turning to KKFK [KKFK (SEQ ID NO:32)], the “Fold Activation of Latent TGF-β over Baseline (soft agar NRK colony formation)” value (from here on “Fold Activation of Latent TGF-β”) turned out to be 2.2 fold over baseline.

KRFK [KRFK (SEQ ID NO:5)]: the “Fold Activation of Latent TGF-β” value turned out to be 2 fold over baseline.

Take HRFK [HRFK (SEQ ID NO:6)]: the “Fold Activation of Latent TGF-β” value was 2 fold over baseline.

Regarding QRFK [QRFK (SEQ ID NO:8)], the “Fold Activation of Latent TGF-β” value was determined as 2 fold over baseline.

The target in another assay is recombinant small latent TGF-β. The assay is described as follows: cell-based or functional assay. This is another data set of the same source.
As to KRFKQDGG [KRFKQDGG (SEQ ID NO:9)], the “Fold Activation of Latent TGF-β” value amounted to 2.1 fold over baseline.

As to KRFKQDGGWSHWSPWSS [KRFKQDGGWSHWSPWSS (SEQ ID NO:15)], the “Fold Activation of Latent TGF-β” value stood at 2 fold over baseline.

As to KRFKQDGGWWSP [KRFKQDGGWWSP (SEQ ID NO:17)], the “Fold Activation of Latent TGF-β” value turned out to be 2.1 fold over baseline.

For KRFKQDGGWSHWSP [KRFKQDGGWSHWSP (SEQ ID NO:14)], the “Fold Activation of Latent TGF-β” value was found to be 2.3 fold over baseline.

As for KRFK [KRFK (SEQ ID NO:5)], the “Fold Activation of Latent TGF-β” value amounted to 2 fold over baseline.

As to KRFKQDGGWSHW [KRFKQDGGWSHW (SEQ ID NO:16)], the “Fold Activation of Latent TGF-β” value was 1.9 fold over baseline.
